{"source": "paper PMC6942045", "data": [{"target": "K63-di-Ub (UniProt P0CG47)", "assay": "ITC", "units": {"Kd": "µM"}, "values": [{"substance": "Cezanne2 UBA (1-88 aa), GST cleaved (from UniProt Q8TE49 1-88) (domain or fragment)", "Kd": 20}, {"substance": "Cezanne UBA (1-66 aa), GST cleaved (from UniProt Q6GQQ9 1-66) (domain or fragment)", "Kd": 20}, {"substance": "Rap80 UIMs (60-144 amino acids), GST cleaved (from UniProt Q96RL1 60-144) (domain or fragment)", "Kd": 6.4}]}]}
